The DeepSol protein solubility set

Experiment: soluble on expression in E. coli; label from the status in PepcDB or PDB records

| Sequence | soluble on expression in E. coli |
| --- | --- |
| MLKSSASAPAKAILFGEHAVVYSKPAIAAAIDRRVTVTVSESSSTHVTIPSLGIRHSSERPSGGILDYIGRCLELYHDASPLDIRVEMEIPAGSGLGSSAALTVALIGPLDRYHGRDHGPGETAARAHRVEVDVQGAASPLDTAISTYGGLVYLDSQRRVRQFEADLGDLVIAHLDYSGETARMVAGVAERFRRFPDIMGRIMDTVESITNTAYRELLRNNTEPLGELMNLNQGLLDSMGVSTRELSMMVYEARNAGAAGSKITGAGGGGSIIAHCPGCVDDVVTALNRNWKAMRAEFSVKGLI | soluble |
| MHKLLYTCNLRCRMCPFWRRKDEKLLSLEEEVLMLKSLEKAGVLFMGFEGGEPLLRRDLEDILEESYKRFYTSLVTNGWLLKDRAKSISNYLDYLFVSIDGIGEVHDKIRGISGAFERAVEGIKEARKYLPVAISFTITKENMDQVKDVIELA | soluble |
| MQYPINEMFQTLQGEGYFTGVPAIFIRLQGCPVGCAWCDTKHTWDKLSDREVSLFSILAKTKESDKWGAASSEDLLAVINRQGYTARHVVITGGEPCIHDLMPLTDLLEKSGFSCQIETSGTHEVRCTPNTWVTVSPKVNMRGGYDVLSQALERANEIKHPVGRVRDIEALDELLATLSDDKPRVIALQPISQKEDATRLCIETCIARNWRLSMQTHKYLNIA | not soluble |
| GMSSMQHIVELTSDLIRFPSMHSRPEQISRCAGFIMDWCAQNGIHAERMDHDGIPSVMVLPEKGRAGLLLMAHIDVVDAEDDLFVPRVENDRLYGRGANDDKYAVALGLVMFRDRLNALKAAGRSQKDMALGLLITGDEEIGGMNGAAKALPLIRADYVVALDGGNPQQVITKEKGIIDIKLTCTGKAAHGARPWMGVNAVDLLMEDYTRLKTLFAEENEDHWHRTVNLGRIRAGESTNKVPDVAEGWFNIRVTEHDDPGALIDKIRKTVSGTVSIVRTVPVFLAADSPYTERLLALSGATAGKAHGASDARYLGENGLTGVVWGAEGFNTLHSRDECLHIPSLQSIYDPLMQLAREMEEHAAV | soluble |
| MSLSNALVNPREAPAHGRFVPAPILAHRNCTQGALNMLEAKLKPHREYLLAQSAGQKLFLTLTVKPTAEARQARPDLSVVFVVDTSGSMREVVTEPTERTGRTTQVDGQVYEVVKGGKNKMQLMIEALRGIVTSTLIRPGDRLALVKFDDTAEVLVPFITASNQAQLAAAVDKLDWYSGGTHMGAGMRAGAGLLTGERGSRRMVLISDGQTFDAPLVEDQIGALAGLQVPVTVVAVGDEVNADLLTAIADRTQGQPLDIVPDTQNPQPPAIRASELPAALLGDLQKAAAEVVTGVALSVRTVKDVVLERVTRVQPTQTEVALRADGPLPLGNVDAGSGATFVLEFTLPARPATKMRLAQLGLTYEVPGANYRGEIPPLDVVVEFTGEEALAARIDPEVMGWVQQRNIEGLVAQATREANQNPEQAAKTLEQARAMTQRLGNGAMTQALDRAIGELGSSKTISLGTAKTLKIGAKTQTLSSDAALPSDEDIRRMTGEGGSHHHHHH | soluble |
| MNAILHDMAVPFYKPVSNECSLFEAASRKGLPLLLKGPTGCGKTRFVEHMAARMGRKLYTVACHDDLSAADLIGRYLLKGGATEWVDGPLTRAVREGAICYLDEVVEARKDVTVVLHPLTDNRRTLMIDRTGEELVAPPGFMLVASYNPGYQNILKRLKPSTRQRFLSIGFTFPDPVTETAVVARESGLSEAKVAPLVRLAGHVRALSGMDLEEGVSTRLLVYAASLMAGGMSIEAALEAAVIEPLTDEPDVAQALRDLIATVYGLEHHHHHH | not soluble |
| MKRANAVKLIVGKETHEKLKELAIVAAKCWNEVNWLRMQQFKEGERVDFSKTEKEVYEKYKQILKVNTQQVARKNAESWRSFFSLIEEKKGKLPKWFKPRPPGYWKDKSGKYKMLIIIRNDRYEIDEEKRIIYLKDFKLSLSFNGKLKWRGKQGRLEIIYNEARRSWYAYIPVEVQNDVKAEDKLKASIDLGIINLATVYVEDGSWYIFKGGSVLSQYEYYSKRISVAQKTLARHKQGRSREMKLLHEKRKRFLKHALNSMVRKIMEEFKNKGVGEIAIGYPKEISKDHGNKLTVNFWNYGYIIRRFEGVGEELGVKVVKVDEAWTSKTCSLCGEAHDDGRIKRGLYRCLRIGKVINADLNGAINILHIPESLGAGSRGQLTVRDRGNGLKTQPAVYRWTNGAGWVSSPTSYEVMKMKAVNCKPMNRHKGTFTLLEHHHHHH | not soluble |
| MRARGRLLPRLLRTNIQSSRFLVSLGHTNDVMSSHLCSLCHLDHHPHPTPPSSSSSSSSLSLCAWLSCVCVCVCVYMHTTYHTGLSTYQCSILQPPPSPSLSTHTFLCVYCVLAPSSPPCIMVDTSSSAPASASPAITTSAAATTPVVILVVGMAGTGKTTLVHRMQHYAHTNGIRSYFINLDPAVTHTPYNVNIDIRDSVRYGEVMKNYRLGPNGAIMTSLNLFATKIHQVVSLLEKKEEMLDWIIVDTPGQIEVFTWSASGQLMADSFGAVFPTVLLFVADTVRCVSSPQTFVSTMLYSSGIMLKQQVPLVVVFNKTDVVSADSVIAWMRDNDALDEAVTNPHRSNRSRRAVSGEPGDGEDADWRGEGTRIGAAALGSQDALLANQGSGYAGTLAQSMSLFLHEFYEDLPYAAVSAASGAGMSELAASIERGKQQALEAKAERSAH | not soluble |
| MPKFDVSKSDLERLIGRSFSIEEWEDLVLYAKCELDDVWEENGKVYFKLDSKDTNRPDLWSAEGVARQIKWALGIEKGLPKYEVKKSNVTVYVDEKLKDIRPYGVYAIVEGLRLDEDSLSQMIQLQEKIALTFGRRRREVAIGIFDFDKIKPPIYYKAAEKTEKFAPLGYKEEMTLEEILEKHEKGREYGHLIKDKQFYPLLIDSEGNVLSMPPIINSEFTGRVTTDTKNVFIDVTGWKLEKVMLALNVMVTALAERGGKIRSVRVVYKDFEIETPDLTPKEFEVELDYIRKLSGLELNDGEIKELLEKMMYEVEISRGRAKLKYPAFRDDIMHARDILEDVLIAYGYNNIEPEEPKLAVQGRGDPFKDFEDAIRDLMVGFGLQEVMTFNLTNKEVQFKKMNIPEEEIVEIANPISQRWSALRKWILPSLMEFLSNNTHEEYPQRIFEVGLATLIDESRETKTVSEPKLAVALAGTGYTFTNAKEILDALMRHLGFEYEIEEVEHGSFIPGRAGKIIVNGRDIGIIGEVHPQVLENWNIEVPVVAFEIFLRPLYRH | soluble |
| MSLKLIATDLNGTLLHQDQGFNQPLLKETLSQLKQRGIRLVLASGNQYAHLKEVFREIWSTDLAVIAENGASIYLGDELVFDGSLTPQQVRLFLSATAQDEFLQNAYLILVGAQGSYTRVGAPAPLIAAAEKFYDHLQQVMSLETVTDRIKKISVSTAPEQAAALVQHLNQRFTGQLRAHDSGYGVIDVVSLHVGKLPAVQWLAQHWQIPATEIVAFGDGANDVPLLNYAGQSYAMKNAPVDIQAQAKHVTVWDNDRDGVLRTIATLLVADEGHHHHHH | soluble |
| QHTEERELKKRLMNTARTVSEMTEVKEALARKKQTEAVRHAVEEIRMINEADYIVVMDMNHIRYTHPVSTSIGKKSEGADEEAAFAEHIYFSEAKGEIGTAVRAFYPVKDQDLNQIGVVLVGKTLPGIADILLHLKRD | not soluble |
| MGSDKIHHHHHHMIFTMKATKILICILCCTWICSCSLLEVDPVSTITSQSFWKTPGDAKAYLTGIYNKVRSLNNTSYYGEDRGDAFKAGEIGPTSVAWAHTLLESNAPSYRSAYNIIHHANLLFNKIESLKFTNETEKNRIKAECHFLRAYTYFLIVRIWGDAPIITDPVLSDNVELKPRSPKEDVMKLILEDIEQSVLLFPEDGYINKNLASKPAAYALKADVLMWKAKVLNGGNADLEEAIKAIDQVGGSGVSLLPDYAKVFANDNKKNNEIIFSFYFERYETGNLSIATNTTSRTDNLSMAVNLADAATSPNQSRHVYAPSDKARELYLKYPGDRRYKVAMIDLVDKDGNLILTQTNKFRGKAYSDDRYFDDDLIAYRWGDLLLLRAEANAALNKISESLVDLNEVRDRAGLEPYDGPKDKIAVEKEICDERLRELFIEQKRWFDLVRFHCGGTIDIYKEVPNLNDKPGYPLYFPINYNDMVLNDKLVQTDGYESNVER | not soluble |
| MGSDKIHHHHHHMNQSETDMIERIFTATDALMATVGLPNLSMHKIAREAKISPGTIYIYFKNKEELLTQFARYIFQNFQDVLKEGYDERQPFFQQYRKMWWNIWHFLEAEPTIMANMGQYESLPGFSDICQKWESDSIWYHFCVKAKAAGELADVPPPILFAISLESAFNIAFKCRHFCAQVSMEMLEAVIERTWLAIKN | not soluble |
| MSLGNDNEKSTTKTSPDKIKFLETSELLTLNTTAEEDFASFTAQNQVFEGLYTLDQKDNFVPGVAGGMPEISADQTKYTIKLKKNAKWSDGSQVTADDFVYAWRRAVDPKTAPGYSALFKDSIKNATEINEGKLPVTDLGVVATDPTTLEITLKKPVPYFISLLSFETFFPQKESFVKKQGDKYGTDSAHTLYNGPFVMKDWGGNITNKWTYAKNDQYWDKDNVKVNEIDVQVAKDINAGVNLYNTNEADRVPLSGDFAKQYKDKKDFQTEKDALISYLRMNQKRDGKATPLANNSLRHALNLAVDKKQLTDRILGDGSFPANGLLPKDFVQNPTTGADFRTDSGDHLVYNKEEALKYWKQAQKELGTDKVTIELLGDDQETTKTIFAYLKAQFEDNLPGVTIKVKNMPSKSATQLTSDGNYDLSLAAWMPDFKDPWTYSSLFLSDYFNNHMSYNSPAYDRLVKSTDTTLATKPEERWNAFVASEKVLLDDDAAILPLYQHQTAVLQRTDITGVQKHAFGSPYSYKFIRVEKEGHHHHHH | soluble |
| MAHHHHHHMWWTAARRRLYYPNQIFLSKDNRRINNSWLPRRLLLVRHGESEANVNREVYSNTPDWKIPLTALGREQAYDCGKRLRNIIQGEKLYIYYSPYARTRQTVSEIRRSFDESQIQGEREDERLREQEMGNYQPLQDMDATWAARNAFGRLYYRFPFGESGADVGDRVSGFFDSLLRESIGLTVPNMNECVVQGAREGLGALDLGPWSTGVDNVPGSSCACSVSTSQGGPVASSTGSESAPPSWTPSFHQATTSSAGLRRTIRRTSPHRPLPLSDFGEAETRGVPPLNDHCASAGEEQNVLIIAHGLLIRLFIGRWFRVPMEVFETMCNPPNCAIIVLERDDRLGRLVMTDMSKSLFGSDPLLQMMRFDGREDTHWYREKFLGIVDPTKAAEEAVVEDDDENHYSMSNAHNSGVGAPAPPPRQRKPSTSTATRASPSTSASASGTSASSAESADVSASTAEHAALAARDRATQPKCPPPCMDCTPNRDYMTFSRRR | not soluble |
| GPGSRGIDGRQVVRREIKWANMAADWNKTNTKMHAKLKERCRKGIPSRFRGVAWQLLMGSFHQLNSEENNGVYVALRDKKLADKETDVIISRDLARTFPTHVLFQDPGGVGQTFLRNILHAYAGCDPEVGYVQGMGFLVAALSTQMAEGGVLLGPA | not soluble |
| IDAPSFRDKRQADKLFEKDTMDWKVSINDKSIDYSQYKMPGKKGAFPYSNLDEQLAEYNELNGVYFSNGKRVELSELQATGTAKETHRVNSPLTKAKIAYLEMTDEERQLFMKWVSQQ | not soluble |
| MSLAEPRNGESAGADAVLTKAIEDALGNGTGSVTVDLPQAEGKAKAGDLVTLRYTMTTADGALVATTEESVAADKGRPRSVAFTARSRYRPEEIVAGGEGNLPGVAEAVIGMAPGEKKHLSLSADKAFGARDPQRVVTMATVKSLPRTVAIPAADYVKNFGALPVVGKELPVVPYFPARVIEVTEQQAKLQLLARDGERFTESFGAVETKVDGESVKIRLVPTIGAPFEFRGARGTITAAGEENFTVDFNHPLADRSVVLDLEVVSLTKGEKLAAISVPWLENHDQGLEKAKQEEKPAVLVLYADWCQWCKKLFGETAEDPRIKAVSDRFVWIRVNSDKEKAYKEQYGQDGYPLIVLLDRQGKVAKKLDGFRDAAGLREELNALLEGHHHHHH | soluble |
